In US20160272683A1 (Novo Nordisk, published 2016):
Numbered stars: 1 amine (or outer) side, 2 acyl side, 3 side chain; on linkers, the order of the positions; unused ones are H or OH. * marks the point of attachment. C20 diacid = O=C(O)CCCCCCCCCCCCCCCCCCC(=O)*; C18 diacid = O=C(O)CCCCCCCCCCCCCCCCC(=O)*; γGlu = O=C(O)[C@H](CCC(=O)[*:2])N[*:1]; AEEA = NCCOCCOCC(=O)O

T1: human amylin 3(a) receptor (human calcitonin receptor co-expressed with RAMP-3) (human, UniProt P30988 25-474; O60896 24-148, limits assumed)
T1 sequence (looked up) 1: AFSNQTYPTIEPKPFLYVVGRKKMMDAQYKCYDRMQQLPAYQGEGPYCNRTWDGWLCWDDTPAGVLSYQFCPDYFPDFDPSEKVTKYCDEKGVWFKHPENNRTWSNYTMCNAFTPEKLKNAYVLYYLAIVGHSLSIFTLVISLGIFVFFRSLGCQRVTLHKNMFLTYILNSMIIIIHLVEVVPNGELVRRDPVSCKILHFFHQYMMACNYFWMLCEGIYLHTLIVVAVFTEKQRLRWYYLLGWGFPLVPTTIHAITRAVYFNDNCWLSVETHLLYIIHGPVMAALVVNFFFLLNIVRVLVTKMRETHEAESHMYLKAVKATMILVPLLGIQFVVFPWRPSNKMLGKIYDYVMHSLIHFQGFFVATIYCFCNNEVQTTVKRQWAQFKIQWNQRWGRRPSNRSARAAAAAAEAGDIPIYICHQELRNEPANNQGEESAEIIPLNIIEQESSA
T1 sequence (looked up) 2: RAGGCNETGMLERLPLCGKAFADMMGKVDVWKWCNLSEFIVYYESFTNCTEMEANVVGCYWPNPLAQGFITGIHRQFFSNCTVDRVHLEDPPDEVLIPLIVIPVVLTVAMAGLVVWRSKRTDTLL

T2: human calcitonin receptor (human, UniProt P30988 25-474)
T2 sequence (looked up): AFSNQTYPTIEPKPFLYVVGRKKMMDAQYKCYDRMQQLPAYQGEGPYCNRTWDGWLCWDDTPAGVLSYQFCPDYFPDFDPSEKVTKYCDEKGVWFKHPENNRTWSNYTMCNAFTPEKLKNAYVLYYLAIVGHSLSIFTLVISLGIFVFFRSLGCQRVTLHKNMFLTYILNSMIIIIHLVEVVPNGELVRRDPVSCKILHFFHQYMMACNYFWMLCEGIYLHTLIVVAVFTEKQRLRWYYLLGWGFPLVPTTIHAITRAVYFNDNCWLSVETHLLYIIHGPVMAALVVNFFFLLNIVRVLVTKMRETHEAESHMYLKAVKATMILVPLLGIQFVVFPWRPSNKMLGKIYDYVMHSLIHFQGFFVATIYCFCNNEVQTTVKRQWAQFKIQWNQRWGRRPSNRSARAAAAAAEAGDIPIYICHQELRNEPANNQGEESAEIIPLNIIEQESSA


Key:
[1] = target: T1, human amylin 3(a) receptor (human …); assay: cell-based or functional assay
[2] = target: T2, human calcitonin receptor; assay: cell-based or functional assay

hAmylin-R funct. EC50 (pM) [1] | hCTR funct. EC50 (pM) [2] | Binder
72 pM | 49 pM | {C20 diacid-γGlu}-ASGLSTAVLGRLSQELHELQTYPRTETGSQTY-NH2 (SMILES CC(C)C[C@H](NC(=O)CNC(=O)[C@H](CO)NC(=O)[C@H](C)NC(=O)CC[C@H](NC(=O)CCCCCCCCCCCCCCCCCCC(=O)O)C(=O)O)C(=O)N[C@@H](CO)C(=O)N[C@H](C(=O)N[C@@H](C)C(=O)N[C@H](C(=O)N[C@@H](CC(C)C)C(=O)NCC(=O)N[C@@H](CCCNC(=N)N)C(=O)N[C@@H](CC(C)C)C(=O)N[C@@H](CO)C(=O)N[C@@H](CCC(N)=O)C(=O)N[C@@H](CCC(=O)O)C(=O)N[C@@H](CC(C)C)C(=O)N[C@@H](Cc1c[nH]cn1)C(=O)N[C@@H](CCC(=O)O)C(=O)N[C@@H](CC(C)C)C(=O)N[C@@H](CCC(N)=O)C(=O)N[C@H](C(=O)N[C@@H](Cc1ccc(O)cc1)C(=O)N1CCC[C@H]1C(=O)N[C@@H](CCCNC(=N)N)C(=O)N[C@H](C(=O)N[C@@H](CCC(=O)O)C(=O)N[C@H](C(=O)NCC(=O)N[C@@H](CO)C(=O)N[C@@H](CCC(N)=O)C(=O)N[C@H](C(=O)N[C@@H](Cc1ccc(O)cc1)C(N)=O)[C@@H](C)O)[C@@H](C)O)[C@@H](C)O)[C@@H](C)O)C(C)C)[C@@H](C)O) [[N-terminal(C20 diacid-gGlu), des1, 4G, 9V, 15Q, 21Q, 23Y, 30S, 31Q, 32T, 33Y]mimylin]
89 pM | 52 pM | {C20 diacid-γGlu-AEEA-AEEA}-ASGLSTAVLGRLSQELHELQTYPRTETGSGTY-NH2 (SMILES CC(C)C[C@H](NC(=O)CNC(=O)[C@H](CO)NC(=O)[C@H](C)NC(=O)COCCOCCNC(=O)COCCOCCNC(=O)CC[C@H](NC(=O)CCCCCCCCCCCCCCCCCCC(=O)O)C(=O)O)C(=O)N[C@@H](CO)C(=O)N[C@H](C(=O)N[C@@H](C)C(=O)N[C@H](C(=O)N[C@@H](CC(C)C)C(=O)NCC(=O)N[C@@H](CCCNC(=N)N)C(=O)N[C@@H](CC(C)C)C(=O)N[C@@H](CO)C(=O)N[C@@H](CCC(N)=O)C(=O)N[C@@H](CCC(=O)O)C(=O)N[C@@H](CC(C)C)C(=O)N[C@@H](Cc1c[nH]cn1)C(=O)N[C@@H](CCC(=O)O)C(=O)N[C@@H](CC(C)C)C(=O)N[C@@H](CCC(N)=O)C(=O)N[C@H](C(=O)N[C@@H](Cc1ccc(O)cc1)C(=O)N1CCC[C@H]1C(=O)N[C@@H](CCCNC(=N)N)C(=O)N[C@H](C(=O)N[C@@H](CCC(=O)O)C(=O)N[C@H](C(=O)NCC(=O)N[C@@H](CO)C(=O)NCC(=O)N[C@H](C(=O)N[C@@H](Cc1ccc(O)cc1)C(N)=O)[C@@H](C)O)[C@@H](C)O)[C@@H](C)O)[C@@H](C)O)C(C)C)[C@@H](C)O) [[N-terminal(C20 diacid-gGlu-2xOEG), des1, 4G, 9V, 15Q, 21Q, 23Y, 30S, 31G, 32T, 33Y]mimylin]
41 pM | 27 pM | {C20 diacid-γGlu}-ASGLSTAALGRLSQELHELQTYPHTETGSGTY-NH2 (SMILES CC(C)C[C@H](NC(=O)CNC(=O)[C@H](CO)NC(=O)[C@H](C)NC(=O)CC[C@H](NC(=O)CCCCCCCCCCCCCCCCCCC(=O)O)C(=O)O)C(=O)N[C@@H](CO)C(=O)N[C@H](C(=O)N[C@@H](C)C(=O)N[C@@H](C)C(=O)N[C@@H](CC(C)C)C(=O)NCC(=O)N[C@@H](CCCNC(=N)N)C(=O)N[C@@H](CC(C)C)C(=O)N[C@@H](CO)C(=O)N[C@@H](CCC(N)=O)C(=O)N[C@@H](CCC(=O)O)C(=O)N[C@@H](CC(C)C)C(=O)N[C@@H](Cc1c[nH]cn1)C(=O)N[C@@H](CCC(=O)O)C(=O)N[C@@H](CC(C)C)C(=O)N[C@@H](CCC(N)=O)C(=O)N[C@H](C(=O)N[C@@H](Cc1ccc(O)cc1)C(=O)N1CCC[C@H]1C(=O)N[C@@H](Cc1c[nH]cn1)C(=O)N[C@H](C(=O)N[C@@H](CCC(=O)O)C(=O)N[C@H](C(=O)NCC(=O)N[C@@H](CO)C(=O)NCC(=O)N[C@H](C(=O)N[C@@H](Cc1ccc(O)cc1)C(N)=O)[C@@H](C)O)[C@@H](C)O)[C@@H](C)O)[C@@H](C)O)[C@@H](C)O) [[N-terminal(C20 diacid-gGlu), des1, 4G, 15Q, 21Q, 23Y, 25H, 30S, 31G, 32T, 33Y]mimylin]

The remaining lines, values behind:

Binder | hAmylin-R funct. EC50 (pM) [1] | hCTR funct. EC50 (pM) [2]
{C20 diacid-γGlu}-ASGLSTAVLGRLSQELHELQTYPRTETGSATY-NH2 (SMILES CC(C)C[C@H](NC(=O)CNC(=O)[C@H](CO)NC(=O)[C@H](C)NC(=O)CC[C@H](NC(=O)CCCCCCCCCCCCCCCCCCC(=O)O)C(=O)O)C(=O)N[C@@H](CO)C(=O)N[C@H](C(=O)N[C@@H](C)C(=O)N[C@H](C(=O)N[C@@H](CC(C)C)C(=O)NCC(=O)N[C@@H](CCCNC(=N)N)C(=O)N[C@@H](CC(C)C)C(=O)N[C@@H](CO)C(=O)N[C@@H](CCC(N)=O)C(=O)N[C@@H](CCC(=O)O)C(=O)N[C@@H](CC(C)C)C(=O)N[C@@H](Cc1c[nH]cn1)C(=O)N[C@@H](CCC(=O)O)C(=O)N[C@@H](CC(C)C)C(=O)N[C@@H](CCC(N)=O)C(=O)N[C@H](C(=O)N[C@@H](Cc1ccc(O)cc1)C(=O)N1CCC[C@H]1C(=O)N[C@@H](CCCNC(=N)N)C(=O)N[C@H](C(=O)N[C@@H](CCC(=O)O)C(=O)N[C@H](C(=O)NCC(=O)N[C@@H](CO)C(=O)N[C@@H](C)C(=O)N[C@H](C(=O)N[C@@H](Cc1ccc(O)cc1)C(N)=O)[C@@H](C)O)[C@@H](C)O)[C@@H](C)O)[C@@H](C)O)C(C)C)[C@@H](C)O) [[N-terminal(C20 diacid-gGlu), des1, 4G, 9V, 15Q, 21Q, 23Y, 30S, 31A, 32T, 33Y]mimylin] | 53 pM | 52 pM
{C18 diacid}-EASELSTAALGRLSAEIHELATLPRTETGPESP-NH2 (SMILES CC[C@H](C)[C@H](NC(=O)[C@H](CCC(=O)O)NC(=O)[C@H](C)NC(=O)[C@H](CO)NC(=O)[C@H](CC(C)C)NC(=O)[C@H](CCCNC(=N)N)NC(=O)CNC(=O)[C@H](CC(C)C)NC(=O)[C@H](C)NC(=O)[C@H](C)NC(=O)[C@@H](NC(=O)[C@H](CO)NC(=O)[C@H](CC(C)C)NC(=O)[C@H](CCC(=O)O)NC(=O)[C@H](CO)NC(=O)[C@H](C)NC(=O)[C@H](CCC(=O)O)NC(=O)CCCCCCCCCCCCCCCCC(=O)O)[C@@H](C)O)C(=O)N[C@@H](Cc1c[nH]cn1)C(=O)N[C@@H](CCC(=O)O)C(=O)N[C@@H](CC(C)C)C(=O)N[C@@H](C)C(=O)N[C@H](C(=O)N[C@@H](CC(C)C)C(=O)N1CCC[C@H]1C(=O)N[C@@H](CCCNC(=N)N)C(=O)N[C@H](C(=O)N[C@@H](CCC(=O)O)C(=O)N[C@H](C(=O)NCC(=O)N1CCC[C@H]1C(=O)N[C@@H](CCC(=O)O)C(=O)N[C@@H](CO)C(=O)N1CCC[C@H]1C(N)=O)[C@@H](C)O)[C@@H](C)O)[C@@H](C)O) [[N-terminal(C18 diacid), 17I]mimylin] | 7 pM | 5 pM
{C18 diacid-γGlu-AEEA-AEEA}-ASGLSTAVLGRLSQELHELQTYPRTETGSGTY-NH2 (SMILES CC(C)C[C@H](NC(=O)CNC(=O)[C@H](CO)NC(=O)[C@H](C)NC(=O)COCCOCCNC(=O)COCCOCCNC(=O)CC[C@H](NC(=O)CCCCCCCCCCCCCCCCC(=O)O)C(=O)O)C(=O)N[C@@H](CO)C(=O)N[C@H](C(=O)N[C@@H](C)C(=O)N[C@H](C(=O)N[C@@H](CC(C)C)C(=O)NCC(=O)N[C@@H](CCCNC(=N)N)C(=O)N[C@@H](CC(C)C)C(=O)N[C@@H](CO)C(=O)N[C@@H](CCC(N)=O)C(=O)N[C@@H](CCC(=O)O)C(=O)N[C@@H](CC(C)C)C(=O)N[C@@H](Cc1c[nH]cn1)C(=O)N[C@@H](CCC(=O)O)C(=O)N[C@@H](CC(C)C)C(=O)N[C@@H](CCC(N)=O)C(=O)N[C@H](C(=O)N[C@@H](Cc1ccc(O)cc1)C(=O)N1CCC[C@H]1C(=O)N[C@@H](CCCNC(=N)N)C(=O)N[C@H](C(=O)N[C@@H](CCC(=O)O)C(=O)N[C@H](C(=O)NCC(=O)N[C@@H](CO)C(=O)NCC(=O)N[C@H](C(=O)N[C@@H](Cc1ccc(O)cc1)C(N)=O)[C@@H](C)O)[C@@H](C)O)[C@@H](C)O)[C@@H](C)O)C(C)C)[C@@H](C)O) [[N-terminal(C18 diacid-gGlu-2xOEG), des1, 4G, 9V, 15Q, 21Q, 23Y, 30S, 31G, 32T, 33Y]mimylin] | 50 pM | 22 pM
{C20 diacid-γGlu}-ASGLSTAVLGRLSQELHELQTYPRTETGSGTY-NH2 (SMILES CC(C)C[C@H](NC(=O)CNC(=O)[C@H](CO)NC(=O)[C@H](C)NC(=O)CC[C@H](NC(=O)CCCCCCCCCCCCCCCCCCC(=O)O)C(=O)O)C(=O)N[C@@H](CO)C(=O)N[C@H](C(=O)N[C@@H](C)C(=O)N[C@H](C(=O)N[C@@H](CC(C)C)C(=O)NCC(=O)N[C@@H](CCCNC(=N)N)C(=O)N[C@@H](CC(C)C)C(=O)N[C@@H](CO)C(=O)N[C@@H](CCC(N)=O)C(=O)N[C@@H](CCC(=O)O)C(=O)N[C@@H](CC(C)C)C(=O)N[C@@H](Cc1c[nH]cn1)C(=O)N[C@@H](CCC(=O)O)C(=O)N[C@@H](CC(C)C)C(=O)N[C@@H](CCC(N)=O)C(=O)N[C@H](C(=O)N[C@@H](Cc1ccc(O)cc1)C(=O)N1CCC[C@H]1C(=O)N[C@@H](CCCNC(=N)N)C(=O)N[C@H](C(=O)N[C@@H](CCC(=O)O)C(=O)N[C@H](C(=O)NCC(=O)N[C@@H](CO)C(=O)NCC(=O)N[C@H](C(=O)N[C@@H](Cc1ccc(O)cc1)C(N)=O)[C@@H](C)O)[C@@H](C)O)[C@@H](C)O)[C@@H](C)O)C(C)C)[C@@H](C)O) [[N-terminal(C20 diacid-gGlu), des1, 4G, 9V, 15Q, 21Q, 23Y, 30S, 31G, 32T, 33Y]mimylin] | 57 pM | 65 pM
